Values belong to the binder of their own block, whether it stands above or below them.
Assays:
[1] = target: T1, nucleosome core particle: human histone octamer (H2A, H2B, H3.1, H4) wrapped by DNA (human, UniProt P04908 1-130; P06899 1-126; P68431 1-136; P62805 1-103); assay: FRET; NCP SHL-6.2; competition with His-MYC-MAX (800 nM)
[2] = target: T1, nucleosome core particle: human histone …; assay: FRET; NCP SHL+5.8; competition with His-MYC-MAX (625 nM)

- IC50 [1]: > 3000 nM
B1: CLOCK-BMAL1 bHLH PAS-AB heterodimer with BMAL1 R173A (complex)
chain 1: VEEDDKDKAKRVSRNKSEKKRRDQFNVLIKELGSMLPGNARKMDKSTVLQKSIDFLRKHKETTAQSDASEIRQDWKPTFLSNEEFTQLMLEALDGFFLAIMTDGSIIYVSESVTSLLEHLPSDLVDQSIFNFIPEGEHSEVYKILSTHLLESDSLTPEYLKSKNQLEFCCHMLRGTIDPKEPSTYEYVRFIGNFKSLTSVSTSTHNGFEGTIQRTHRPSYEDRVCFVATVRLATPQFIKEMCTVEEPNEEFTSRHSLEWKFLFLDHRAPPIIGYLPFEVLGTSGYDYYHVDDLENLAKCHEHLMQYGKGKSCYYRFLTKGQQWIWLQTHYYITYHQWNSRPEFIVCTHTVVSYAEVRAERRRELGIEESL
chain 2: not shown

- IC50 [2]: 2320 nM
- IC50 [1]: 1180 nM
B2: CLOCK-BMAL1 bHLH PAS-AB heterodimer (complex)
chain 1: B1 chain 1
chain 2: not shown

- IC50 [1]: > 3000 nM
B3: CLOCK-BMAL1 bHLH PAS-AB heterodimer with BMAL1 Q385A (complex)
chain 1: B1 chain 1
chain 2: not shown

From article PMC10338342 (2023)
